Molecular target: the molecule itself
Experiment: SEC-MALS

B1: miniTRIM37 RBhcc B-box-2 mutant (other)
chain: MDEQSVESIAEVFRCFICMEKLRDARLCPHCSKLCCFSCIRRWLTEQRAQCPHCRAPLQLRELVNCRWAEEVTQQLDTLQLCSLTKHEENEKDKCENHHEKLSVFCWTCKKCICAQCADWGGMHGGHTFKPLAEIYEQHVTKVNEEVAKLRRRLMELITERNQVAKRVPKAPPEEKEALIARGKALGEETELLESLLQEVEHQLRSCSKSELISKSSEILMMFQQVHRK
stoichiometry N: 2

Reference: publication PMC11482875 (bioRxiv, 2024)
